For this assay, the target named is T1, Pep 4 (synthetic Phl p 1-derived peptide) (Phleum pratense (timothy grass)).
T1 chain: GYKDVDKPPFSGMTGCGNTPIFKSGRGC
Put plainly: ELISA. (In an ELISA, binding on a coated surface is turned into a signal by an enzyme label.)

B1: ScFv 25VH/25VL (ScFv engineered from the V regions of the Phl p 1-specific IgE Fab clone 25) (scFv, V domains shown)
VH: LESGGGLVQPGGSLRLSCAASGFTFDDHAMHWVRQTPEKGLQWVSGISWNSGVVAYADSVKGRFSISRDNAKNSLYLQMNNLIPEDTAVYYCVRDFRAASPYFFDYWGQGTRVTVSS
VL: ELTQSPSSLSASVGDRVTITCRASQSIGNYLNWYQQKPGKAPNLLIYAASSLQSGVPSRFSGSGSGTDFTLTISSLQREDFATYYCQQSNRTPITFGQGTRLEIK
In the case of B1, the binding result is on record as “no binding”.

B2: P1 IgG1 (complete human monoclonal IgG1 Ab with the V regions of IgE Fab clone 25) (antibody, V domains shown)
VH: LESGGGLVQPGGSLRLSCAASGFTFDDHAMHWVRQTPEKGLQWVSGISWNSGVVAYADSVKGRFSISRDNAKNSLYLQMNNLIPEDTAVYYCVRDFRAASPYFFDYWGQGTRVTVSS
VL: ELTQSPSSLSASVGDRVTITCRASQSIGNYLNWYQQKPGKAPNLLIYAASSLQSGVPSRFSGSGSGTDFTLTISSLQREDFATYYCQQSNRTPITFGQGTRLEIK
With B2, the binding result is reported as “no binding”.

Source of the values: paper PMC4476238 (Journal of immunology (Baltimore, Md. : 1950), 2015).
